Results published in article PMC2115487.

Target: TGF-beta receptor(s) on CCL64 mink lung epithelial cells (mink (endogenous in CCL64))
Assay: radioligand binding

- Kd: 8.3 pM
- increase of specific binding with 100 ug/ml heparin over no heparin: 46%
- specific binding, cpm of the 100% value (without heparin): 325 cpm
Substance: Human TGF-beta (type 1), 125I-labeled (ligand)
